Columns and labels:
[1] = target: T54A+A105T HIV-1 CA tubes (HIV-1); experiment: co-sedimentation; assembled CA tubes (5 µM) incubated 1 h with HeLa cell extracts (500, 250 or 125 µg) in 100 µl of 50 mM Tris pH 8, 150 mM NaCl, 5 mM MgCl2, 0.5 mM EDTA; pelleted 5 min at 5,000 x g and washed; non-reducing SDS-PAGE and quantitative immunoblotting for CPSF6 and CA; in one experiment with or without 5 µM CsA
[2] = target: RKLM+T107I HIV-1 CA tubes (HIV-1); experiment: as above
[3] = target: RKLM+S41A HIV-1 CA-NC tubular complexes (HIV-1); experiment: co-sedimentation; 5 µl of assembled CA-NC complexes mixed with 125 µg of HeLa cell lysate, NaCl adjusted to 150 mM, 1 h at room temperature; pelleted through a 60% sucrose cushion at 100,000 x g for 1 h at 4°C; CPSF6 in the pellet measured by LI-COR and normalized by CA-NC
[4] = target: RKLM+T107I HIV-1 CA-NC tubular complexes (HIV-1); experiment: as above

Substance: endogenous CPSF6 (from UniProt Q16630 1-551) (natural protein)
- quantity of CPSF6 brought down relative to T54A CA tubes (fold of T54A CA tubes) [1]: 0.33
- reduced binding to CPSF6, percent [2]: 50%
- percent weaker binding than RKLM [3]: 7%
- reduced binding to CPSF6, percent [4]: 50%
